Measurements taken from patent US20260250737A1, “Engineered Luciferases and Luciferin Substrates” (Monod Bio, Inc., priority 2023, published 2026).
Where two headings read alike, the source gives them in different places.

Key:
[1] = tested on: LuxSit; type: biochemical; settings: inclusion in assay buffer at pH8
Experimental: Assay buffers that increase and stabilize the signal output of luciferase assay were tested. Inclusion of Imidazole increased the brightness of LuxSit at pH8.
In-well concentrations were 185 pM of enzyme and 10 μM DTZ. […] In-well concentrations of DTZ was 10 μM.

[2] = Luciferase activity of circularly permuted LuxSit-i variants; type: biochemical; settings: circularly permuted proteins; 5 nM protein, 10 μM DTZ
Experimental: FIG. 6A provides kinetic profile over one hour of circularly permuted LuxSit-i variants. Variants were diluted in PBS and combined 1:1 with DTZ substrate, resulting in final in-well concentrations of 5 nM protein/variant and 10 μM DTZ.
Variants were diluted in PBS and combined 1:1 with DTZ substrate, resulting in final in-well concentrations of 5 nM protein and 10 μM DTZ.

[3] = target: T1, LgLux_4039; assay: cell-based or functional assay
T1 chain: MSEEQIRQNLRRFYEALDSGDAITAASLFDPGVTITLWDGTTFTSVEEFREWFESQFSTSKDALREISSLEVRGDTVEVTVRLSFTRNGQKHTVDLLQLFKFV

[4] = target: T2, MBIO-5339; assay: cell-based or functional assay
T2 chain: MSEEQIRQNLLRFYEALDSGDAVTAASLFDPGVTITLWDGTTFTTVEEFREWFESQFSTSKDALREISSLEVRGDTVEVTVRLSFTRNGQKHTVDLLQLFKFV

[5] = target: T3, MBIO-5342; assay: cell-based or functional assay
T3 chain: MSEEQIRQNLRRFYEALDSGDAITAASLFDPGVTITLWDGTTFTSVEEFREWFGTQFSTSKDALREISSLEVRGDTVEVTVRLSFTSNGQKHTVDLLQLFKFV

[6] = target: T4, MBIO-5341; assay: cell-based or functional assay
T4 chain: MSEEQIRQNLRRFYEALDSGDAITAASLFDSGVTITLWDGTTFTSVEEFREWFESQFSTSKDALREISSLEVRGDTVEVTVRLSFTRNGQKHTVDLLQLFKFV

[7] = target: T5, MBIO-5340; assay: cell-based or functional assay
T5 chain: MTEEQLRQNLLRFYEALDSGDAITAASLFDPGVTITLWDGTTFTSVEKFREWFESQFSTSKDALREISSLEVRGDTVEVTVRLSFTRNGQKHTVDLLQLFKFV

[8] = target: T6, LgLux_4039 variant S19C (SEQ ID NO:2805); assay: cell-based or functional assay
T6 chain: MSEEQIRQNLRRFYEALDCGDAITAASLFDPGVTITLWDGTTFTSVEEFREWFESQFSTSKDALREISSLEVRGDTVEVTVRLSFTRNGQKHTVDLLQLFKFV

[9] = target: T1, LgLux_4039; assay: cell-based or functional assay
[10] = target: T7, MBIO-5335; assay: cell-based or functional assay
T7 chain: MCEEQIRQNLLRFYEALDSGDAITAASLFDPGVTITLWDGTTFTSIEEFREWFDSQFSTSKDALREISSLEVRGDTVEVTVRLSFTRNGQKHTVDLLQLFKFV

[11] = target: T8, MBIO-5336; assay: cell-based or functional assay
T8 chain: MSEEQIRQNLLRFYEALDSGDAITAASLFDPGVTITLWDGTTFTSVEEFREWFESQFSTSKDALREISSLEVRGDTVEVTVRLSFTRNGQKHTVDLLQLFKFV

[12] = target: T9, MBIO-5337; assay: cell-based or functional assay
T9 chain: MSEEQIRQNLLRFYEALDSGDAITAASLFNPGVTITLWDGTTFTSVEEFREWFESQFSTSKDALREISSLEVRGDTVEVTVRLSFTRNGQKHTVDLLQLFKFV

[13] = target: T10, MBIO-5338; assay: cell-based or functional assay
T10 chain: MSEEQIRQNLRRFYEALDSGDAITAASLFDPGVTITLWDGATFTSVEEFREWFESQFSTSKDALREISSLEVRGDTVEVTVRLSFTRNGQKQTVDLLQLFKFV

With `c1c[nH]cn1` [Imidazole] the “brightness of LuxSit” value [1] was “increased”.

B1: SEQ ID NO 2227: circularly permuted protein from MBIO-148, inpaint length 32 (protein)
chain: GQKHVVVLVHTFRFRGNRVTEVEVEIIPCPSLDEASIAAAIAEAEALAAERLAELGAPPPSISEEQIRQFLRRFYEALDSGDADTAASLFHPGVTIHLWDGVTFTSREEFREWFERLFSTSKDAWREIVSLRVVGDTVVVVVVLHFTLN
In the case of B1, the “luciferase activity compared to SEQ ID NO:2600” value [2] is reported as “similar”.

B2: SEQ ID NO 2236: circularly permuted protein from MBIO-148, inpaint length 32 (protein)
chain: GQKHVVVLVHTFRFRGNRVTEVRVEIIPAPSLDEESIEARVAEARRLAEERLAELGDPPPSISEEQIRQFLRRFYEALDSGDADTAASLFHPGVTIHLWDGVTFTSREEFREWFERLFSTSKDAWREIVELRVRGDTVVVVVVLHFTLN
With B2 the “luciferase activity compared to SEQ ID NO:2600” value [2] was “similar”.

B3: SmLux_4039 (peptide)
peptide: RVVAVRVYVNPTG
With B3 the “Baseline Signal (Normalized by expression)” value [3] was 123000, the “Fold change upon Rap addition” value [3] was 1.5 fold and the “Baseline Signal (Normalized by expression)” value [4] was 28300. For the same molecule, the “Fold change upon Rap addition” value [4] was 1.9 fold, the “Baseline Signal (Normalized by expression)” value [5] was 3360 and the “Fold change upon Rap addition” value [5] was 2 fold. For the same molecule, the “Baseline Signal (Normalized by expression)” value [6] was 10400, the “Fold change upon Rap addition” value [6] was 2.2 fold and the “Baseline Signal (Normalized by expression)” value [7] was 6670. For the same molecule, the “Fold change upon Rap addition” value [7] was 2.2 fold, the “Baseline Signal (Normalized by expression)” value [8] was 3670 and the “Fold change upon Rap addition” value [8] was 2 fold. For the same molecule, the “Baseline Signal (Normalized by expression)” value [9] was 22100, the “Fold change upon Rap addition” value [9] was 1.9 fold and the “Baseline Signal (Normalized by expression)” value [10] was 23800. The “Fold change upon Rap addition” value [10] was 1.9 fold, the “Baseline Signal (Normalized by expression)” value [11] was 16400 and the “Fold change upon Rap addition” value [11] was 2.1 fold. The “Baseline Signal (Normalized by expression)” value [12] was 14900, the “Fold change upon Rap addition” value [12] was 2.1 fold and the “Baseline Signal (Normalized by expression)” value [13] was 18900. The “Fold change upon Rap addition” value [13] was 2.2 fold.
